Experimental findings from paper PMC6555848 are described below.

The test concerns the target fluorescein-labeled phospho-Tyr peptide derived from the EPO receptor (FAM-GpYLVLDKW). The test can be described thus: fluorescence polarisation; 10 nM FAM-labelled peptide, increasing STAT5B protein; 20 mM HEPES, 50 mM NaCl, 0.1% NP-40 substitute, 10% DMSO; 1 h at room temperature; 1:1 model; pH of the Kd values printed in the text not stated (pH 6.8, 7.25, 7.5 or 7.9 were used). On the technique in general: In fluorescence polarisation assays a small probe gives low polarisation when free and higher when bound to something large.
The substance “STAT5B^N642A (from UniProt P51692 1-787) (natural protein)” showed a Kd of 612 nM.
“STAT5B^N642D (from UniProt P51692 1-787) (natural protein)” displayed a dissociation constant Kd of 261 nM.
Regarding “STAT5B^N642Q (from UniProt P51692 1-787) (natural protein)”, the dissociation constant Kd came to 229 nM.

One may read the Kd as the constant that tells how readily two partners part at equilibrium.
